From paper PMC7229837, “Molecular architecture of the DNA-binding sites of the P-loop ATPases MipZ and ParA from Caulobacter crescentus”

Key:
Experiment in all cases: MST; low-affinity group, KD >> 10 uM; EMSA: 10 mM HEPES/NaOH pH 7.2, 150 mM NaCl, 10 mM MgCl2, 0.05% Tween 20, 0.46 mM ATPgS, room temp; BLI: 50 mM HEPES/NaOH pH 7.2, 50 mM NaCl, 5 mM MgCl2, 0.1 mM
MipZ R196A = biological target: T1, MipZ R196A (Caulobacter crescentus, UniProt Q9A6C9 1-278, R196A); conditions: protein: recombinant; tags: C-terminal His6 (pET21a); chain copies: 2; label: Cy3 (5') on strand 1; blunt
T1 sequence: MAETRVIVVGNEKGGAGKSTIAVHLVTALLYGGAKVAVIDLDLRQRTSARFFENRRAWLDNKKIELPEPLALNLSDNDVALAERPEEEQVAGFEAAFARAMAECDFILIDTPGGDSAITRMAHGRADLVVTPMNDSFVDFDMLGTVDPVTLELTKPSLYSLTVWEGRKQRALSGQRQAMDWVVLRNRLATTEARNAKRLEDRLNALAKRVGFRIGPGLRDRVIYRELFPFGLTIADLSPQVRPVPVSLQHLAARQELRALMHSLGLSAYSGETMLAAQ

MipZ R242A = biological target: T2, MipZ R242A (Caulobacter crescentus, UniProt Q9A6C9 1-278, R242A); conditions: protein: recombinant; tags: C-terminal His6 (pET21a); chain copies: 2; label: Cy3 (5') on strand 1; blunt
T2 sequence: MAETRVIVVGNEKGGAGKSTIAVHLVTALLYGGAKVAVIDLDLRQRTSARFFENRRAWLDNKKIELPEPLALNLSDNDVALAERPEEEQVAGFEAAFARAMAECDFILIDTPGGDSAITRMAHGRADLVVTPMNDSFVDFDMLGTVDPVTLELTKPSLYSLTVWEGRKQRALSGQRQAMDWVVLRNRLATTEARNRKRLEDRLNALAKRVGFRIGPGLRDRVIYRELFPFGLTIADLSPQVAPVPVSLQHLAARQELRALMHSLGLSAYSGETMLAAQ

MipZ R219A = biological target: T3, MipZ R219A (Caulobacter crescentus, UniProt Q9A6C9 1-278, R219A); conditions: protein: recombinant; tags: C-terminal His6 (pET21a); chain copies: 2; label: Cy3 (5') on strand 1; blunt
T3 sequence: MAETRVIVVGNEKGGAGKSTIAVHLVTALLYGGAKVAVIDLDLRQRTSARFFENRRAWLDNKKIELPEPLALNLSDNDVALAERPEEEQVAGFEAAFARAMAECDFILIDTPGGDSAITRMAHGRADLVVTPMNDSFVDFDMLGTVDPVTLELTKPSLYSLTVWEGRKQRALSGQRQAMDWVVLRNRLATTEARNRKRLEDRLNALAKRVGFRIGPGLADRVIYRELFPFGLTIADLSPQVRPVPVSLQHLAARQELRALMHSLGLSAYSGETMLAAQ

MipZ K13A = biological target: T4, MipZ K13A (Caulobacter crescentus, UniProt Q9A6C9 1-278, K13A); conditions: protein: recombinant; tags: C-terminal His6 (pET21a); label: Cy3 (5') on strand 1; blunt
T4 sequence: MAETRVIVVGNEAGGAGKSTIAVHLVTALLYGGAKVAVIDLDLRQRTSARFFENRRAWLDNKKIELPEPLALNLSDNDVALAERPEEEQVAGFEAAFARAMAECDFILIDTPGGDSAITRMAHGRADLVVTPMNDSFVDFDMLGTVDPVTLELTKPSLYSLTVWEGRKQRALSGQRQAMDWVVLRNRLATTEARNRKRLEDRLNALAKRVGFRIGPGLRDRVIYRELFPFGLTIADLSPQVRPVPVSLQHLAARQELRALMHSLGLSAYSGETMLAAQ

MipZ L237A = biological target: T5, MipZ L237A (Caulobacter crescentus, UniProt Q9A6C9 1-278, L237A); conditions: protein: recombinant; tags: C-terminal His6 (pET21a); chain copies: 2; label: Cy3 (5') on strand 1; blunt
T5 sequence: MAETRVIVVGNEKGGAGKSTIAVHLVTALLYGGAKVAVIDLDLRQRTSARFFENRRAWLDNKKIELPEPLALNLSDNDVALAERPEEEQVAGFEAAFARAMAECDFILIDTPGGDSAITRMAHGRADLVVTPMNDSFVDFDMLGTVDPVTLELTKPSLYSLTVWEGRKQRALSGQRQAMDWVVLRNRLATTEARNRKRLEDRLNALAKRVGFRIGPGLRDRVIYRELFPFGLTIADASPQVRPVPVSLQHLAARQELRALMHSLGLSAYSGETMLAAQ

MipZ K197A = biological target: T6, MipZ K197A (Caulobacter crescentus, UniProt Q9A6C9 1-278, K197A); conditions: protein: recombinant; tags: C-terminal His6 (pET21a); chain copies: 2; label: Cy3 (5') on strand 1; blunt
T6 sequence: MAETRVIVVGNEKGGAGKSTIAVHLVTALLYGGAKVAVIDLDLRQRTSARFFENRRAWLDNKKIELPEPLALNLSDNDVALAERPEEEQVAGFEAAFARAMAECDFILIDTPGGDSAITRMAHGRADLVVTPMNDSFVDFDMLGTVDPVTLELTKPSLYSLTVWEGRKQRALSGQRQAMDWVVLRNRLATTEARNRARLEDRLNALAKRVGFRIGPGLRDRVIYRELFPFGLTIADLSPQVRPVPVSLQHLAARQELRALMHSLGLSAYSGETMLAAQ

Measured: Kd

B1: rand-Cy3/rand-rev 26 bp (dsDNA)
DNA 1: GAGGCAGACTAGATCTTCTAGTTCGG
DNA 2: CCGAACTAGAAGATCTAGTCTGCCTC
> 10 µM: all assays above
